Residue numbers refer to the chain shown, from its start. Where two headings read alike, the source gives them in different places.

The target in test [1] is T1, recombinant Fc chimeric conjugate of human EGFR (human, UniProt P00533 25-645).
T1 construct: extracellular domain; Coated on the ELISA plate; also called HER1; Her1
Description: ELISA, coated antigen. (In general: In an ELISA, binding on a coated surface is turned into a signal by an enzyme label.)
Description: (§1) Microtiter plates were coated with a) c-Met, IGF-1R, EGFR, HER2, and/or HER3 protein or b) EGFR, HER2, and/or HER3 (recombinant Fc chimeric conjugates of human c-Met, IGF-1R, EGFR, HER2, HER3 or IL12 Rβ1). After a blocking process, specific antibodies from B-cell supernatants bind to the targets and are then detected by a POD-labeled anti-rabbit IgG antibody. The IL12R binding was used as a counter-screen.
(§2) 12.5 μL 0.5 μg/mL protein in PBS was transferred to a microtiter plate incubated and washed 3× with Wash Buffer. 90 μL Block Buffer was added to each well, incubated and washed. 12.5 μL Standard Antibody (Anti-EGF-Receptor; HER2 Rabbit anti-Human Monoclonal (extracellular domain) (SP3) Antibody; HER3 (N-terminal) antibody; start concentration 2 μg/ml; IL-12Rbeta1 antibody start concentration 500 ng/ml) in 1:2 dilutions or sample diluted in ELISA buffer was added, incubated and washed. 12.5 μl 1:5000 POD-Antibody (Anti-rabbit IgG, peroxidase-linked species-specific Fab2 fragment (from donkey) (ECL); assay dilution: 1:5000) in Elisa Buffer was added, incubated and washed. 15 μl TMB was added and 15 μl HCl was added after sufficient development. Absorbance (Optical Density O.D.) was read at 450 nm/620 nm.

The target of test [2] is T2, recombinant Fc chimeric conjugate of human HER2 (human, UniProt P04626 23-652).
T2 construct: extracellular domain; Coated on the ELISA plate
The test is described as follows: ELISA, coated antigen.
Description: as §1, §2

Test [3] deals with T2, recombinant Fc chimeric conjugate of …. The test is described as follows: ELISA, coated antigen; supernatant IgG 1500.0 ng/ml.
Description: as §1, §2
Test [4] deals with T1, recombinant Fc chimeric conjugate of …. The description is as above.
Description: as §1, §2
Test [5] has as its target T3, recombinant Fc chimeric conjugate of human HER3 (human, UniProt P21860 20-643).
T3 construct: extracellular domain; Coated on the ELISA plate
Description: ELISA, coated antigen.
Description: as §1, §2

Test [6] concerns the target T2, recombinant Fc chimeric conjugate of …. Description: ELISA, coated antigen. This is another data set of the same source.
Description: as §1, §2
Test [7] deals with T4, recombinant Fc chimeric conjugate of human IGF-1R (human, UniProt P08069 31-935).
T4 construct: extracellular domain; Coated on the ELISA plate
T4 sequence (P08069 31-935, change not shown): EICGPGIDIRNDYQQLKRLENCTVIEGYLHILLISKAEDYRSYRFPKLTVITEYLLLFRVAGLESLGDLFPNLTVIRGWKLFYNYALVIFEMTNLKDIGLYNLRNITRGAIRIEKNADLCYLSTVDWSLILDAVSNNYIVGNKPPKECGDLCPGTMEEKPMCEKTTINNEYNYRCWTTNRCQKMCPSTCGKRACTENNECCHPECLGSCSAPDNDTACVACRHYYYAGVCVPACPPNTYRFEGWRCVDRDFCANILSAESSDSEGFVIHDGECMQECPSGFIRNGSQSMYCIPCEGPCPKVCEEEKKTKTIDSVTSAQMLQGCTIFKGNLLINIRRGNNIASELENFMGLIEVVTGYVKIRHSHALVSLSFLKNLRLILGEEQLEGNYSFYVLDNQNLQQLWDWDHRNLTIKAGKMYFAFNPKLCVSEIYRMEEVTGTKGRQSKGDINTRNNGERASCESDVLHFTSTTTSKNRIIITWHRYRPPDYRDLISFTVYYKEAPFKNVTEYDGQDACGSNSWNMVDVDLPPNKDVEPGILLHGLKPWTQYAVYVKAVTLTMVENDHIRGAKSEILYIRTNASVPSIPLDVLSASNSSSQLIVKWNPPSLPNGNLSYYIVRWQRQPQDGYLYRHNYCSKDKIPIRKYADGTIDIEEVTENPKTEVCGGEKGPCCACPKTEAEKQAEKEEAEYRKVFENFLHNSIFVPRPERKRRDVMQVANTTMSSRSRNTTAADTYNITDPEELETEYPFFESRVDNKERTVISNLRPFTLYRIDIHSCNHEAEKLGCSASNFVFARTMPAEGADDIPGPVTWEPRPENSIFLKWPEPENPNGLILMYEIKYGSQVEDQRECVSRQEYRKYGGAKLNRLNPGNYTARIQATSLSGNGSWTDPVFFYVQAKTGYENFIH
The test is described as follows: ELISA, coated antigen.
Description: as §1, §2

Test [8] addresses T1, recombinant Fc chimeric conjugate of …. The test is described as follows: ELISA, coated antigen. This is another data set of the same source.
Description: as §1, §2
Test [9] has as its target T2, recombinant Fc chimeric conjugate of …. Description: ELISA, coated antigen; supernatant IgG 1148.9 ng/ml.
Description: as §1, §2
The target of test [10] is T3, recombinant Fc chimeric conjugate of …. The description is as above.
Description: as §1, §2
Test [11] addresses T1, recombinant Fc chimeric conjugate of …. Described as above.
Description: as §1, §2

T3 sequence (P21860 20-643, change not shown): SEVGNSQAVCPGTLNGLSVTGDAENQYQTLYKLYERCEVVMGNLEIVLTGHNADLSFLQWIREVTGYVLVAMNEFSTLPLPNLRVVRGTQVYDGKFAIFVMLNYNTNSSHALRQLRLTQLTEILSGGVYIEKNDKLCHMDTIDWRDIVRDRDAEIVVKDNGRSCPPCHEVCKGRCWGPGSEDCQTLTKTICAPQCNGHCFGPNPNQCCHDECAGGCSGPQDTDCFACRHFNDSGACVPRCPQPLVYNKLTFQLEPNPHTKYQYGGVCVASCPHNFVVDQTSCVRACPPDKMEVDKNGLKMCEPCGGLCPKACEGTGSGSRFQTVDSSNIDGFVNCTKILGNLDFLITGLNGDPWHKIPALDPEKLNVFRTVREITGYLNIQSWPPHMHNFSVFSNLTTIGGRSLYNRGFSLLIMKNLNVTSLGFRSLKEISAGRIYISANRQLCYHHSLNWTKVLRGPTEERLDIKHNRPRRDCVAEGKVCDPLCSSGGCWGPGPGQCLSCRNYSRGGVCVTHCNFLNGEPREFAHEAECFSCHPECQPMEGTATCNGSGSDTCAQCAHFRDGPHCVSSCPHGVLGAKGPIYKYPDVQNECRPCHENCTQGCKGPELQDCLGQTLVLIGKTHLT

B1: Antibody A05 (antibody, V domains shown)
VH: QSLEESGGRLVTPGGSLTLTCTVSGIDLSSYAVAWVRQAPGKGLQYIGFFDKSGNVYYASWAKGRFTISRTSSTTVDLKMTSLTTEDTATYFCGRGSGGSDLWGQGTLVTVSS
VL: DVVMTQTPASVEAAVGGTVTIKCQASQSISGYLAWFQQKPGQPPKLLIYGASTLASGVPSRFKGSGSGTEFTLTISDLECADAATYYCQSYYTTSATSYGNAFGGGTEVVVK
notes: rabbit IgG in B-cell supernatant
B1: the binding result in [1] is reported as “no binding (tested: OD 0.1 or lower)”.

B2: Antibody 69 (antibody, V domains shown)
VH: QSVEESGGRLVTPGTLLTLTCTVSGFSLTTYAVSWVRQAPGKGLEYMGYISATGSTYYASWAKGRFTISRTSTTVDLKITSPTIEDTATYFCARIDAATSYSAFDPWGPGTLVTVSS
VL: AQVLTQTPSSVSAAVGGTVTINCQSSESVYKNNYLAWYQQKPGQPPRLLIYLASTLASGVPSRFSGSGSGTQFTLTISGVQCDDAATYYCEATYVGVDWYWAFGGGTEVVVK
notes: as for B1
On to B2, for which the binding result in test [2] is “no binding (tested: OD 0.1 or lower)”.

B3: Antibody 77 (antibody, V domains shown)
VH: QSVEESGGRLVTPGTPLTLTCTISGFSLNNYWMSWVRQAPGKGLEWIGIISSSDTTWYASWAKGRFTISRTSTTVDLKMTSLTTEDTATYFCARDRGDVGYSDLDLWGPGTLVTVSS
VL: AYDMTQTPASVEVAVGGTVTIKCQASQSISSYLSWYQQKPGQPPKLLIYKASTLASGVSSRFSGSGSGTEFTLTISGVQCDDAATYYCQQGYSESNLDNAFGGGTEVVVK
notes: as for B1
Turning to B3, the results for the “Optical density (OD)” value in [3] and in [4] were 2.5 OD and 1.5 OD, respectively. In test [5], the binding result is reported as “no binding (tested: OD 0.1 or lower)”.

B4: Antibody 62 (antibody, V domains shown)
VH: QSVEESGGRLVTPGTPLTLTCTVSGFSLSTNDIGWVRQAPGKGLEWIGYIWSGVKTYYVGWAKGRFTISKTSSTTVDLKMTSLTTEDTATYFCARVNSFSYVYSLWGPGTLVTVSS
VL: AYDMTQTPGSVEVAVGGTVTIKCQASEDIHSSLAWYQQKPGQPPKLLIYLASTLESGVPSRFKGSGSGTEYTLTISGVECADAATYYCQQHHSTSGVDNAFGGGTEVVVK
notes: as for B1
For B4, the binding result in test [2] is listed as “no binding (tested: OD 0.1 or lower)”.

B5: Antibody 64 (antibody, V domains shown)
VH: QEQLKESGGGLVTPGTPLTLTCTASGFTISSYDMGWVRQAPGKGLEWIGYIWSGGSTYYANWAKGRFTISKTSTTVDLKMTSLTTEDTATYFCARVEFYSYVYVLWGPGTLVTVSS
VL: AFELTQTPSSVEAAVGGTVTIKCQASQSISGCLAWYQQKPGQPPKLLIYLASTLASGVSSRFRGSGSGTEYTLTISGVECDDAATYYCQQHYSSNNVDNAFGGGTEVVVK
notes: as for B1
Regarding B5, the binding result in test [2] is on record as “no binding (tested: OD 0.1 or lower)”.

B6: Antibody B02 (antibody, V domains shown)
VH: QSVEESGGRLVTPGTPLTLTCTVSGFSLSSYDMIWVRQAPGKGLEYIGIINTGGSAHYARWANGRFTISKTSTKVDLKITSPTIEDTATYFCARRDFGVSSKLWGQGTLVTVSS
VL: DIVMTQTPASVSAAVGGTVTINCQASEDIGNWLAWYQQKPGQRPKLLIYAASDLASGVPSRFKGSGSGTDFTLTISGLECADAATYYCQGGFFGSGFVYAFGGGTEVVVK
notes: as for B1
Turning to B6, in test [1], the binding result is listed as “no binding (tested: OD 0.1 or lower)”.

B7: Antibody D08 (antibody, V domains shown)
VH: QSLEESGGRLVTPGTPLTLTCTVSGFSLGTYWMSWVRQAPGRGLDWIGFIGSSGNGNYASWAKGRFTISRASSTTVDLKMTSLTTEDTATYFCARVKYFYYFDLWGQGTLVTVSS
VL: AQVLTQTTSPVSAAVGGTVTINCQASESVYGKKYLSWYQQKPGQPPKQLIYEASKLASGVPSRFEGSGSGTQFTLTISGVQCDDAATYYCQGEFSCSSADCTAFGGGTEVVVK
notes: as for B1
B7: the binding result in test [6] and in test [7] was “no binding (tested: OD 0.1 or lower)” in each case.

B8: Antibody 75 (antibody, V domains shown)
VH: QSVEESGGRLVTPGTPLTLTCTVSGFSLSRNAMSWVRQAPGKGLEWIGIINIYGTTWYASWAKGRFTISKTSSTTVTLKITSPTTEDTATYFCARDYGGDSATRLNLWGQGTLVTVSS
VL: DVVMTQTPASVEAAVGGTVTIKCQASQSIGGYLSWYQQKPGQPPKLLIYDASNLEIGVPSRFKGSGSGTEYTLTISDLECADAVTYYCQCTYGYGISSSYGNAFGGGTEVVVK
notes: as for B1
Take B8: the binding result in [2] is recorded as “no binding (tested: OD 0.1 or lower)”.

B9: Antibody 71 (antibody, V domains shown)
VH: B8 VH with Y58H, S60G
VL: B8 VL
notes: as for B1
For B9, in test [2], the binding result is “no binding (tested: OD 0.1 or lower)”.

B10: Antibody 68 (antibody, V domains shown)
VH: QSVEESGGRLVTPGTPLTLTCTVSGFSLSTYSMSWVRQAPGKGLEWIGTIAISGTTYYASWAKGRFTISKSSTTVDLKISSPTTEDTATYFCARYVSDLIGTNLWGPGTLVTVSS
VL: DVVMTQTPASVSEPVGGTVTIKCQASQSIGSNLAWHQQKPGQPPKLLIYAASNLASGVSSRFKGSRSGTEYTLTISAVQCDDAATYYCQYTYYGSSVVIGTFGGGTEVVVK
notes: as for B1
Consider B10, for which the “Optical density (OD)” value in test [3] is 2.7 OD. In addition, the binding result in test [5] is recorded as “no binding (tested: OD 0.1 or lower)”.

B11: Antibody 22 (antibody, V domains shown)
VH: QSVEESGGRLVTPGTPLTLTCTVSGFSLSNYGMSWVRQAPGKGLEWIGIITSRSTYYASWAKGRFTISKTSSTTVDLKMTSLTTEDTATYFCGVNNLWGQGTLVTVSS
VL: DPVLTQTPSSVSAAVGGTVTISCQSSQTINNNDLSWFQQKPGQPPKRLIYEASTLTSGVPSRFKGSGSGTQFTLTISDVQCDDAATYYCLGGYYSYGWYFGFGGGTEVVVK
notes: as for B1
For B11, the binding result in test [2] is recorded as “no binding (tested: OD 0.1 or lower)”.

B12: Antibody 23 (antibody, V domains shown)
VH: QSLEESGGRLVKPGTPLTLTCTASGFSLSSYYMIWVRQAPGKGLEYIGIISSSGSTYYASWAKGRFTISKTSSTTVDLKMTSLTTEDTATYFCGVNNLWGQGTLVTVSS
VL: B11 VL with T28S, Q39K
notes: as for B1
Turning to B12, in test [2], the binding result was “no binding (tested: OD 0.1 or lower)”.

B13: Antibody D02 (antibody, V domains shown)
VH: QSLEESGGRLVTPGTPLTLTCTASRFSLSSYGVNWVRQAPGKGLQWIGYSHTDGSAYYTNWAKGRFTISRTSTTVDLKITSPTTADTATYFCWRGGLWGQGTLVTVSS
VL: AQVLTQTPSSVSAAVGGTVTINCQASQSVYKNNYLSWYQQKPGQPPKRLIYTASTLASGVPSRFKGSGSGTEFTLTISDVQCDDAATYYCVGGYDCSSADCNAFGGGTEVVVK
notes: as for B1
On to B13, for which the binding result in [7] was “no binding (tested: OD 0.1 or lower)”.

B14: Antibody 11 (antibody, V domains shown)
VH: QSVEESGGRLVTPGTPLTLTCTVSGFSLRSYAMSWVRQAPGKGLEWVGIISTSGDTYYASWAKGRFTISKTSTTVDLKITSPTTEDTATYFCARYSYDDYGDYVRVGMDLWGPGTLVTVSS
VL: AAVLTQTPSPVSAAVGGTVSISCQSSKSVYYNNWLSWFQQKPGQRPKLLIYGASTLASGVPSRFKGSGSETQFTLTISDVQCDDAATYYCAGGYTSSSDTVSFGGGTEVVVK
notes: as for B1
Regarding B14, the binding result in test [2] was “no binding (tested: OD 0.1 or lower)”.

B15: Antibody G04 (antibody, V domains shown)
VH: QSLEESGGDLVKPGASLTLTCKASGFTISSSYYMCWVRQAPGKGLEWVACSYDGDGSTYYANWAKGRFTTSKTSSTTVTLQMTSLTAADTATYFCARGSYVSRSYYDKWDLWGQGTLVTVSS
VL: EVVMTQTPASVSEPVGGTVTIKCQASQYISSYLSWYQQKPGQPPKLLIYAASNLASGVPSRFKGSGSGTEFTLTISGVQCDDAATYYCQNNYYISGYGTAFGGGTEVVVK
notes: as for B1
Turning to B15, in [1], the binding result is given as “no binding (tested: OD 0.1 or lower)”.

B16: Antibody 47 (antibody, V domains shown)
VH: QSVEESGGRLVTPGTPLTLTCTVSGFSLSSYAMNWVRQAPGKGLEWIGIIDSSGITYYATWAKGRFTISKTSTTVDLKMTSLTTEDTATYFCARGVTLWGQGTLVTVSS
VL: AQVLTQTASPVSAAVGSTVTINCQASQSVYNNNRLSWFQQKPGQPPKLLISGASTLASGVSSRFSGSGSGTQFTLTISDVQCDDAATYYCLGSYDCSSADCGAFGGGTEVVVK
notes: as for B1
As to B16, the binding result in [8] is reported as “no binding (tested: OD 0.1 or lower)”.

B17: Antibody 25 (antibody, V domains shown)
VH: QSLEESGGDLVKPGASLTLICTASGFDLNTNYWICWVRQAPGKGLEWIACIDSGYGDIYYATWAKGRFTISKASSTTVTLQMTSLTAADTATYFCAREIIFHFNLWGPGTLVTVSS
VL: DVVMTQTPASVSEPVGGTVTIKCQASQSIRSYLAWYQQKPGQPPKVLIYKASTLASGVSSRFKGSGSGTQFTLTISDLECADAATYYCQGGVEFNNYLYNSFGGGTEVVVK
notes: as for B1
Take B17: the results for the “Optical density (OD)” value in [9], in test [10] and in [11] were 2.4 OD, 2.6 OD and 3.3 OD, respectively.

B18: Antibody 87 (antibody, V domains shown)
VH: QSVEESGGRLVTPGTPLTVTCTVSGFSLSSYVMSWVRQAPGKGLEWIGIIASSGHTYYATWAKGRFTISKTSTTVDLKITSPTTEDTATYFCARYGSDSGWGYYFTLWGPGTLVTVSS
VL: AQVLTQTPSSVSEPVGGTVTINCQASENIYSYLSWYQQKRGQPPKLLIYGASTLASGVPSRFKGSGSGTEYTLTISDLECDDAATYYCQSGYYTNSGDLAFGGGTEVVVK
notes: as for B1
As for B18, the binding result in [8] was “no binding (tested: OD 0.1 or lower)”.
